Results reported in patent US20250043302A1, “MUTATED HYDROXYPHENYLPYRUVATE DIOXYGENASE POLYPEPTIDE, AND CODING GENE AND USE THEREOF” (BEIJING DABEINONG BIOTECHNOLOGY CO., LTD., priority 2021, published 2025).

Tests used:
Format in all cases: in vivo
[1] = tested on: Arabidopsis thaliana T1 plants; assay: Topramezone tolerance of transgenic Arabidopsis thaliana T1 plants (spray, bleached leaf area grade, damage score); settings: 7 DAT, Table 4; for Classification and statistics of the grade of pesticide damage: Grade 0 / Classification and statistics of the grade of pesticide damage: Grade 1 / Classification and statistics of the grade of pesticide damage: Grade 2 / Classification and statistics of the grade of pesticide damage: Grade 3: number of plants; for Scores: pesticide damage score 0-100
Outline: (§1)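 Damage graded 0–3 from the proportion of bleached leaf area 7 days after spraying. Plants were glufosinate-selected T1 lines, 18 days after sowing, plus vector and wild-type controls. Rates: mesotrione 52.5–420, isoxaflutole 35–280, topramezone 25–200 g ai/ha, with water (0×).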

[2] = tested on: Arabidopsis thaliana T1 plants; assay: Mesotrione tolerance of transgenic Arabidopsis thaliana T1 plants (spray, bleached leaf area grade, damage score); set-up: Scores: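 damage score 0-100 computed as Σ(N×S)/(T×M)×100 over grades 0-3 with higher meaning more damage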; settings: Arabidopsis thaliana T1 plants; for Grade 0 (classification and statistics of the grade of pesticide damage; number of plants) / Grade 1 (classification and statistics of the grade of pesticide damage; number of plants) / Grade 2 (classification and statistics of the grade of pesticide damage; number of plants) / Grade 3 (classification and statistics of the grade of pesticide damage; number of plants): 16 plants
Outline: as §1

[3] = tested on: Arabidopsis thaliana T1 plants; assay: Isoxaflutole tolerance of transgenic Arabidopsis thaliana T1 plants (spray, bleached leaf area grade, damage score); set-up: Scores (pesticide damage): scale not given here; settings: spray, Arabidopsis thaliana T1 plants; for Classification and statistics of the grade of pesticide damage: Grade 0 (number of plants) / Classification and statistics of the grade of pesticide damage: Grade 1 (number of plants) / Classification and statistics of the grade of pesticide damage: Grade 2 (number of plants) / Classification and statistics of the grade of pesticide damage: Grade 3 (number of plants): 16 plants
Outline: as §1

[4] = isoxaflutole 35 g ai/ha (0.5x field concentration)
[5] = isoxaflutole 70 g ai/ha (1x field concentration)

B1: MsHPPD-02: nucleotide sequence encoding wild-type Medicago sativa HPPD; vector DBN11734 (nucleic acid)
DNA: ATGGCTATTGAAACCGAAACACAAACTCAGACTGGATTTAAACTGGTAGGGTTCAAGAATTTCGTTAGGGCTAATCCCAAGTCTGATCGTTTTAAGGTCAAGAGGTTCCACCACGTGGAGTTCTGGTGCACTGATGCAACCAACACGGCGCGGCGTTTTTCACATGGTCTTGGAATGCCTATTGTTGCAAAATCCGACCTCTCCACGGGGAACCAAACACACGCCTCTTACCTGCTACGGAGTGGTGACTTGAACTTCCTCTTCAGCGCCGCCTACTCACCCTCCATATCGTTGTCTTCACCATCCTCGACCGCAGCAATTCCTACATTTTCTGCGAGCAACTGCTTCTCTTTCTCTGCCAGTCATGGCCTCGCCGTCAGAGCAGTGGCCGTTGAAGTAGAGGATGCTGAACTTGCTTTTACAACTTCAGTGAATAATGGAGCAATACCGAGCAGTCCGCCGGTCATACTTGAGAATCATGTGAAGCTAGCGGAGGTGAGGCTTTATGGGGACGTCGTTTTAAGATATGTCAGCTACAATGATCCAAACCCCAATCAAAATCCAAATTTGTTGTTCCTTCCTGGCTTCGAGCGTGTTAGCGATGAATCTTCAAACTCTTCACTGGATTTTGGAATCAGACGGTTGGATCATGCTGTTGGAAATGTTCCTGAACTCTCGAGCGCTGTGAAATATGTGAAGGACTTCACCGGTTTTCATGAATTTGCTGAGTTTACTGCAGAAGATGTGGGTACATCAGAGAGTGGCTTGAATTCCGTGGTGCTCGCCAACAACGAGGAGACTGTACTCTTACCAATGAATGAGCCAGTCTATGGCACCAAGCGTAAATCTCAAATTGAGACATATTTGGAGCACAATGAAGGAGCTGGACTTCAGCATCTCGCGCTGAAGAGTGAGGACATCTTCCGCACCCTACGGGAGATGAGGAAAAGAAGTGGTGTTGGTGGGTTTGAATTCATGCCATCACCTCCTGTCACCTACTACAGGAACCTGAAGAACAGAGTTGGTGATGTACTTTCGGACGAGCAGATAAAGGAATGTGAAGAGTTGGGGATTTTGGTTGATAGAGATGATCAAGGAACACTCCTGCAGATTTTTACAAAACCAATTGGCGACCGCCCCACTATCTTCATAGAGATCATCCAGAGGGTGGGGTGCATGCTCAAAGACGAGGAAGGGAAGGAGTACCAGAAGGGCGGCTGTGGTGGTTTTGGGAAAGGAAACTTTTCTGAGTTATTCAAATCAATTGAAGAGTATGAGAAGACGCTTGAAACGCGTCGCACTGCTTGA
modifications: MsHPPD-02 Nucleotide Sequence
notes: vector DBN11734
Classification and statistics of the grade of pesticide damage: Grade 0 ([1]; topramezone 25 g ai/ha (1×)): 0 | Classification and statistics of the grade of pesticide damage: Grade 1 ([1]; topramezone 25 g ai/ha (1×)): 0 | Classification and statistics of the grade of pesticide damage: Grade 2 ([1]; topramezone 25 g ai/ha (1×)): 0 | Classification and statistics of the grade of pesticide damage: Grade 3 ([1]; topramezone 25 g ai/ha (1×)): 16 | Classification and statistics of the grade of pesticide damage: Grade 0 ([1]; topramezone 100 g ai/ha (4×)): 0 | Classification and statistics of the grade of pesticide damage: Grade 1 ([1]; topramezone 100 g ai/ha (4×)): 0 | Classification and statistics of the grade of pesticide damage: Grade 2 ([1]; topramezone 100 g ai/ha (4×)): 0 | Classification and statistics of the grade of pesticide damage: Grade 3 ([1]; topramezone 100 g ai/ha (4×)): 16 | Scores ([1]; topramezone 25 g ai/ha (1×)): 100 | Scores ([1]; topramezone 100 g ai/ha (4×)): 100 | Resistance evaluation ([1]; topramezone 25 g ai/ha (1×)): non-resistant (non-resistant plants (scores 68-100)) | Resistance evaluation ([1]; topramezone 100 g ai/ha (4×)): non-resistant (non-resistant plants (scores 68-100)) | Resistance evaluation ([2]; mesotrione 52.5 g ai/ha): Non-resistant | Scores ([2]; mesotrione 52.5 g ai/ha): 100 | Grade 0 (classification and statistics of the grade of pesticide damage; number of plants) ([2]; mesotrione 52.5 g ai/ha): 0 | Grade 1 (classification and statistics of the grade of pesticide damage; number of plants) ([2]; mesotrione 52.5 g ai/ha): 0 | Grade 2 (classification and statistics of the grade of pesticide damage; number of plants) ([2]; mesotrione 52.5 g ai/ha): 0 | Grade 3 (classification and statistics of the grade of pesticide damage; number of plants) ([2]; mesotrione 52.5 g ai/ha): 16 | Resistance evaluation ([2]; mesotrione 105 g ai/ha): Non-resistant | Scores ([2]; mesotrione 105 g ai/ha): 100 | Grade 0 (classification and statistics of the grade of pesticide damage; number of plants) ([2]; mesotrione 105 g ai/ha): 0 | Grade 1 (classification and statistics of the grade of pesticide damage; number of plants) ([2]; mesotrione 105 g ai/ha): 0 | Grade 2 (classification and statistics of the grade of pesticide damage; number of plants) ([2]; mesotrione 105 g ai/ha): 0 | Grade 3 (classification and statistics of the grade of pesticide damage; number of plants) ([2]; mesotrione 105 g ai/ha): 16 | Resistance evaluation [3, 4]: Non-resistant | Scores (pesticide damage) [3, 4]: 100 | Classification and statistics of the grade of pesticide damage: Grade 0 (number of plants) [3, 4]: 0 | Classification and statistics of the grade of pesticide damage: Grade 1 (number of plants) [3, 4]: 0 | Classification and statistics of the grade of pesticide damage: Grade 2 (number of plants) [3, 4]: 0 | Classification and statistics of the grade of pesticide damage: Grade 3 (number of plants) [3, 4]: 16 | Resistance evaluation [3, 5]: Non-resistant | Scores (pesticide damage) [3, 5]: 100 | Classification and statistics of the grade of pesticide damage: Grade 0 (number of plants) [3, 5]: 0 | Classification and statistics of the grade of pesticide damage: Grade 1 (number of plants) [3, 5]: 0 | Classification and statistics of the grade of pesticide damage: Grade 2 (number of plants) [3, 5]: 0 | Classification and statistics of the grade of pesticide damage: Grade 3 (number of plants) [3, 5]: 16
